pKd: −log10 of the molar value.
Target: taxol-stabilized microtubules polymerized from bovine brain tubulin dimers (bovine) (UniProt Q6B856)
Assay: co-sedimentation; 100 nM ISB (WT, MTBM or Δ20) with various concentrations of taxol-stabilized microtubules; BRB80, 1 mM DTT, 50 mM NaCl, 20 uM paclitaxel; 15 min at room temperature; 50% glycerol cushion, 279,000 x g; blot with anti-Borealin; apparent Kd from a one-site specific binding fit of three experiments

Substance	pKd
INCENP^1-58-Survivin-Borealin complex (ISB^WT), centromere-targeting region of human CPC (from UniProt Q9NQS7 1-58; O15392 1-142; Q53HL2 1-280)	6.79
ISB^Δ20: INCENP^1-58-Survivin-Borealin lacking the N-terminal 20 amino acids of Borealin (from UniProt Q9NQS7 1-58; O15392 1-142; Q53HL2 21-280) (complex)	6.12
